The text below walks through data of patent publication CN114028562A.

The target in the assay is 天然TSLP. Put plainly: cell-based or functional assay.

Tezepelumab (antibody) registered an IC50, inhibition of natural TSLP-induced STAT5 phosphorylation in SW756-STAT5-Luciferase reporter cells of 1.45 ng/mL.
